Experiments:
Dpb11 wild-type [1] = biological target: T1, Dpb11 wild-type (Saccharomyces cerevisiae (budding yeast), UniProt P47027 1-764); assay: EMSA; nearly 80% bound at 20 nM; EMSA: 1 nM 32P-DNA, 20 mM Tris-HCl pH 7.5, 0.1 mM EDTA, 0.2 mM DTT, 10% glycerol, 40 mg/ml BSA (so in the source), 5 min at 30 C, 0.7% native agarose in 0.5x TBE; GST pull-down: 40 mM Tris-HCl pH 7.5, 100 mM NaCl, 0.1 mM EDTA, 10% glycerol, 0.1% Triton X-100, 1 mM DTT, 0.1 mg/ml BSA, 25 C; conditions: protein: recombinant, (nickel column purification), label: 32P
T1 sequence: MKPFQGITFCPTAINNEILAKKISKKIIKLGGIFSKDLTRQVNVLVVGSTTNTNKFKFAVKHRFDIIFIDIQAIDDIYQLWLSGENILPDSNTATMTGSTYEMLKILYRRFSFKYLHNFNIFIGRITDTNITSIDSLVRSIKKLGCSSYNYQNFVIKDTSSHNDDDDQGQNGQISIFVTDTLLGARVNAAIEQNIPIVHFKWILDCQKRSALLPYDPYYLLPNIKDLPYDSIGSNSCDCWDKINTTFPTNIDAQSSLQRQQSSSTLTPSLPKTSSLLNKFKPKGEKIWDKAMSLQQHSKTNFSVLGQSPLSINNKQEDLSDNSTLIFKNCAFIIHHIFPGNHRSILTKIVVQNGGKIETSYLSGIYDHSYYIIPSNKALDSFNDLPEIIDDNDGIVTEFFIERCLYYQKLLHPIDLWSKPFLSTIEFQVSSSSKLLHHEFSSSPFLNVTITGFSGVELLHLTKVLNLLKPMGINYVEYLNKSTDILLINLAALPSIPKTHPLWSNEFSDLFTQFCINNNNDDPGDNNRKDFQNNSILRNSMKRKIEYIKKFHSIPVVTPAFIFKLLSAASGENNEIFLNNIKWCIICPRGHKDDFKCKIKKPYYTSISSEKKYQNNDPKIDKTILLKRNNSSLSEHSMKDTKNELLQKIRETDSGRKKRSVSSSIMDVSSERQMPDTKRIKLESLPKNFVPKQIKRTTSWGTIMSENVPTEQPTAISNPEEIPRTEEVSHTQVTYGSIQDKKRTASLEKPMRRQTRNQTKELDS

TopBP1 full-length = TopBP1 full-length (Homo sapiens, UniProt Q92547 1-1522); assay: EMSA; nearly 50% shifted at 20 nM; EMSA: 1 nM 32P-DNA, 20 mM Tris-HCl pH 7.5, 0.1 mM EDTA, 0.2 mM DTT, 10% glycerol, 40 mg/ml BSA (so in the source), 5 min at 30 C, 0.7% native agarose in 0.5x TBE; GST pull-down: 40 mM Tris-HCl pH 7.5, 100 mM NaCl, 0.1 mM EDTA, 10% glycerol, 0.1% Triton X-100, 1 mM DTT, 0.1 mg/ml BSA, 25 C; conditions: protein: recombinant, label: 32P
TopBP1 full-length, sequence (Q92547 whole entry): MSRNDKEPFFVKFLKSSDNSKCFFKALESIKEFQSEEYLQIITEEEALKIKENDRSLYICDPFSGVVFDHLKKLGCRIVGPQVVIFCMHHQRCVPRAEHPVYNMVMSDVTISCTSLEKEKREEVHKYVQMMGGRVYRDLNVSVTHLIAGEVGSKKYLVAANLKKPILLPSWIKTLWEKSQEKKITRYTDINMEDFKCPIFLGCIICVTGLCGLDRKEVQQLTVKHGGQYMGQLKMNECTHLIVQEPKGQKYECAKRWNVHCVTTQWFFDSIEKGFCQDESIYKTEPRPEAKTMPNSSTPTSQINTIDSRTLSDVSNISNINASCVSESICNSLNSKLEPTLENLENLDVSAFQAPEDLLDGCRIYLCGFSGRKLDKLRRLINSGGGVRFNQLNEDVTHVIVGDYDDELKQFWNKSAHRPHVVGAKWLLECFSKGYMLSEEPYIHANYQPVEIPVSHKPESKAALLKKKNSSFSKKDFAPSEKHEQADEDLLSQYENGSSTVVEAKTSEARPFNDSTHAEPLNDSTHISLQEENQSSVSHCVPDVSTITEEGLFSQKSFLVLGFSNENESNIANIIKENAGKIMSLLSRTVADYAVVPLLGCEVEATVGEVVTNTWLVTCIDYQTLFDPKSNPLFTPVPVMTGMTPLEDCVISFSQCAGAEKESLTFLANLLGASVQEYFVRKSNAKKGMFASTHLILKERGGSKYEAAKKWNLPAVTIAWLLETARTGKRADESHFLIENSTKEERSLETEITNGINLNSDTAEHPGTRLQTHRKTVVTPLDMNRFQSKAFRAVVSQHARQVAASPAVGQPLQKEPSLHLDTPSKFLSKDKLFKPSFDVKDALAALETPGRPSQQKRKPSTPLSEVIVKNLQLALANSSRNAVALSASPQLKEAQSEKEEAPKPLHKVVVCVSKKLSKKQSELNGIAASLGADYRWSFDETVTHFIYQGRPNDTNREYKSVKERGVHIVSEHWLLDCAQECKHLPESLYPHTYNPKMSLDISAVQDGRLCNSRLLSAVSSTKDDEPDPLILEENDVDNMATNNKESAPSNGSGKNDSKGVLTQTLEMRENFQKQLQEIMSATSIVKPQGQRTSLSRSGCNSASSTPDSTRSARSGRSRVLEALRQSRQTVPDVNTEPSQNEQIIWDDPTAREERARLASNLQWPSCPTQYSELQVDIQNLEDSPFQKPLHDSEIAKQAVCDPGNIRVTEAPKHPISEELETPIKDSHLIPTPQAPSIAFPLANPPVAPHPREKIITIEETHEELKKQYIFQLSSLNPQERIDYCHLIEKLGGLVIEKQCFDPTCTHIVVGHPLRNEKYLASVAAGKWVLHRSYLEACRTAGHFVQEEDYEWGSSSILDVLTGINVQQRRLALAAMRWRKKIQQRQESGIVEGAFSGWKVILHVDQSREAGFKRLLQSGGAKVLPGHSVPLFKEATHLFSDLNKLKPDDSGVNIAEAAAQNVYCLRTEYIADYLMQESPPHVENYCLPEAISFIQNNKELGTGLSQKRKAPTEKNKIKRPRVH

Dpb11 wild-type [2] = biological target: T1, Dpb11 wild-type; assay: EMSA; 80 nM required to bind more than half; EMSA: 1 nM 32P-DNA, 20 mM Tris-HCl pH 7.5, 0.1 mM EDTA, 0.2 mM DTT, 10% glycerol, 40 mg/ml BSA (so in the source), 5 min at 30 C, 0.7% native agarose in 0.5x TBE; GST pull-down: 40 mM Tris-HCl pH 7.5, 100 mM NaCl, 0.1 mM EDTA, 10% glycerol, 0.1% Triton X-100, 1 mM DTT, 0.1 mg/ml BSA, 25 C; conditions: protein: recombinant, (nickel column purification), label: 32P
Dpb11 wild-type [3] = biological target: T1, Dpb11 wild-type; assay: EMSA; 320 nM required to bind more than half; EMSA: 1 nM 32P-DNA, 20 mM Tris-HCl pH 7.5, 0.1 mM EDTA, 0.2 mM DTT, 10% glycerol, 40 mg/ml BSA (so in the source), 5 min at 30 C, 0.7% native agarose in 0.5x TBE; GST pull-down: 40 mM Tris-HCl pH 7.5, 100 mM NaCl, 0.1 mM EDTA, 10% glycerol, 0.1% Triton X-100, 1 mM DTT, 0.1 mg/ml BSA, 25 C; conditions: protein: recombinant; (nickel column purification); label: 32P; blunt
Dpb11 wild-type [4] = biological target: T1, Dpb11 wild-type; assay: EMSA; more than half bound at 40 nM; EMSA: 1 nM 32P-DNA, 20 mM Tris-HCl pH 7.5, 0.1 mM EDTA, 0.2 mM DTT, 10% glycerol, 40 mg/ml BSA (so in the source), 5 min at 30 C, 0.7% native agarose in 0.5x TBE; GST pull-down: 40 mM Tris-HCl pH 7.5, 100 mM NaCl, 0.1 mM EDTA, 10% glycerol, 0.1% Triton X-100, 1 mM DTT, 0.1 mg/ml BSA, 25 C; conditions: protein: recombinant; (nickel column purification); label: 32P
[5] = fork 1:2, 31 bp duplex with two T80 arms
[6] = bubble: 31 bp and 22 bp duplexes flanking T80/T80 loop

B1: fork DNA (structured_DNA)
DNA 1: ATGTCCTAGCAAGCCAGAATTCGGCAGCGTCTTTTTTTTTTTTTTTTTTTTTTTTTTTTTTTTTTTTTTTTTTTTTTTTTTTTTTTTTTTTTTTTTTTTTTTTTTTTTTTT
DNA 2: TTTTTTTTTTTTTTTTTTTTTTTTTTTTTTTTTTTTTTTTTTTTTTTTTTTTTTTTTTTTTTTTTTTTTTTTTTTTTTTTGACGCTGCCGAATTCTGGCTTGCTAGGACAT
- apparent K (half saturation) (Dpb11 wild-type [1]; [5]): < 20 nM
- apparent K (half saturation) (TopBP1 full-length; [5]): ~20 nM

B2: 3'-tailed DNA (mixed)
DNA 1: GACGCTGCCGAATTCTGGCTTGCTAGGACAT
DNA 2: B1 DNA 1
- apparent K (half saturation) (TopBP1 full-length; 3' overhang 80 nt (T)): ~20 nM
- apparent K (half saturation) (Dpb11 wild-type [2]; 3' overhang 80 nt (T)): ~80 nM

B3: 5'-tailed DNA (mixed)
DNA 1: ATGTCCTAGCAAGCCAGAATTCGGCAGCGTC
DNA 2: B1 DNA 2
- apparent K (half saturation) (TopBP1 full-length; 5' overhang 80 nt (T)): ~20 nM
- apparent K (half saturation) (Dpb11 wild-type [2]; 5' overhang 80 nt (T)): ~80 nM

B4: blunt dsDNA (dsDNA)
DNA 1: B3 DNA 1
DNA 2: B2 DNA 1
- apparent K (half saturation) (Dpb11 wild-type [3]): ~320 nM

B5: bubble DNA (structured_DNA)
DNA 1: ATGTCCTAGCAAGCCAGAATTCGGCAGCGTCTTTTTTTTTTTTTTTTTTTTTTTTTTTTTTTTTTTTTTTTTTTTTTTTTTTTTTTTTTTTTTTTTTTTTTTTTTTTTTTTCCACGTCGGCGTCGCCACGAGC
DNA 2: GCTCGTGGCGACGCCGACGTGGTTTTTTTTTTTTTTTTTTTTTTTTTTTTTTTTTTTTTTTTTTTTTTTTTTTTTTTTTTTTTTTTTTTTTTTTTTTTTTTTGACGCTGCCGAATTCTGGCTTGCTAGGACAT
- apparent K (half saturation) (Dpb11 wild-type [1]; [6]): < 20 nM
- apparent K (half saturation) (TopBP1 full-length; [6]): ~20 nM

B6: ssDNA (dT80) (ssDNA)
DNA: TTTTTTTTTTTTTTTTTTTTTTTTTTTTTTTTTTTTTTTTTTTTTTTTTTTTTTTTTTTTTTTTTTTTTTTTTTTTTTTT
- apparent K (half saturation) (Dpb11 wild-type [4]): < 40 nM

Source: paper PMC5415106, “Dpb11 may function with RPA and DNA to initiate DNA replication”
